How the values were obtained:
MazE6 = biological target: T1, MazE6 (UniProt P9WJ87 1-82); test: gel filtration; conditions: protein: recombinant; chain copies: 2; blunt
T1 sequence: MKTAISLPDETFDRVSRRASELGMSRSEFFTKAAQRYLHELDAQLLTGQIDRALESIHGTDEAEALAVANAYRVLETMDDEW

[1] = biological target: the molecule itself; test: SEC-MALS; MazE6 in solution; observed mol. wt. 17 kDa

B1: mazEF6 operator DNA (dsDNA)
DNA 1: CCGGTTATACTATCTGTA
DNA 2: TACAGATAGTATAACCGG
Question: Does B1 bind (MazE6)?
Answer: binds

B2: MazE6 antitoxin (residue 1-82) (natural protein)
chain: MKTAISLPDETFDRVSRRASELGMSRSEFFTKAAQRYLHELDAQLLTGQIDRALESIHGTDEAEALAVANAYRVLETMDDEW
Question: For B2, which “stoichiometry N” value [1] is on record?
Answer: 2

Source: publication PMC9477884 (Communications Biology, 2022)
